Data: the Human Domainome abundance scans (Beltran et al. 2025)
± gives the uncertainty stated by the source.

B1: GA-binding protein alpha chain, residues 172 to 250; numbered along this chain, Q06546 (parent)
chain: GYRKEQERLGIPYDPIQWSTDQVLHWVVWVMKEFSMTDIDLTTLNISGRELCSLNQEDFFQRVPRGEILWSHLELLRKY

Variants of: B1
Assay: abundance fitness (aPCA) (normalised: wild type 0, dead -1); higher = more abundant; growth selection in yeast, the domain comes from the species named
Conditions: Homo sapiens

First: E74L
Second: E74P
The abundance fitness of the first is higher: -0.109 ± 0.04 for the first, -0.904 ± 0.13 for the second.

E74W and E74T are within error of each other in abundance fitness: -0.336 ± 0.085 for the first, -0.161 ± 0.094 for the second.

Compared with E74N, S19V is lower in abundance fitness: -0.226 ± 0.13 for the first, -0.996 ± 0.1 for the second.

Compared with S19E, S19M is lower in abundance fitness: -0.311 ± 0.057 for the first, -0.836 ± 0.14 for the second.

Going from W29F to W29C, the abundance fitness falls from -0.279 ± 0.08 to -0.663 ± 0.099.

W29G and G48M are within error of each other in abundance fitness: -0.776 ± 0.048 for the first, -0.99 ± 0.3 for the second.

G48T and G48L are within error of each other in abundance fitness: -0.813 ± 0.23 for the first, -0.982 ± 0.12 for the second.

T20K and T20A are within error of each other in abundance fitness: 0.043 ± 0.069 for the first, 0.024 ± 0.043 for the second.

First: T20H
Second: T20F
The abundance fitness of the first is higher: -0.047 ± 0.11 for the first, -0.716 ± 0.19 for the second.

Going from T20V to T20Y, the abundance fitness falls from -0.03 ± 0.039 to -0.529 ± 0.11.

T20I and D38A are within error of each other in abundance fitness: -0.101 ± 0.12 for the first, -0.154 ± 0.041 for the second.

D38F and D38M are within error of each other in abundance fitness: -0.492 ± 0.085 for the first, -0.364 ± 0.078 for the second.

R62C and N55A are within error of each other in abundance fitness: -0.143 ± 0.055 for the first, -0.065 ± 0.041 for the second.

First: N55S
Second: N55V
The abundance fitness of the first is higher: 0.012 ± 0.035 for the first, -0.148 ± 0.04 for the second.

Compared with N55R, Q22Y is lower in abundance fitness: -0.014 ± 0.033 for the first, -0.763 ± 0.19 for the second.

First: Q22H
Second: Q22I
The abundance fitness of the first is higher: -0.052 ± 0.085 for the first, -0.899 ± 0.18 for the second.

Q22P and F59E are within error of each other in abundance fitness: -0.991 ± 0.12 for the first, -0.954 ± 0.15 for the second.

First: F59Y
Second: F59L
The abundance fitness of the first is lower: -0.853 ± 0.13 for the first, -0.424 ± 0.041 for the second.

F59P and F59C are within error of each other in abundance fitness: -1.02 ± 0.17 for the first, -0.972 ± 0.3 for the second.

F59S and F59N are within error of each other in abundance fitness: -0.626 ± 0.068 for the first, -0.74 ± 0.19 for the second.

Going from F60V to F60G, the abundance fitness falls from 0.049 ± 0.037 to -0.101 ± 0.038.

F60R and F60E are within error of each other in abundance fitness: 0.003 ± 0.04 for the first, -0.074 ± 0.097 for the second.

Going from N45P to N45V, the abundance fitness rises from -0.373 ± 0.04 to -0.122 ± 0.039.

Going from N45F to R65G, the abundance fitness rises from -0.348 ± 0.11 to 0.007 ± 0.026.

Compared with R65V, R65A is higher in abundance fitness: -0.157 ± 0.043 for the first, -0.003 ± 0.04 for the second.

R65M and S47C are within error of each other in abundance fitness: -0.127 ± 0.065 for the first, -0.039 ± 0.073 for the second.

Going from S47N to S47R, the abundance fitness falls from -0.041 ± 0.1 to -0.277 ± 0.034.

Compared with V30C, V30W is lower in abundance fitness: 0.012 ± 0.14 for the first, -0.339 ± 0.052 for the second.

Going from V30E to V30Y, the abundance fitness falls from -0.08 ± 0.062 to -0.492 ± 0.096.

First: V30L
Second: Q6K
The abundance fitness of the first is higher: -0.12 ± 0.034 for the first, -0.96 ± 0.13 for the second.

Going from S35H to S35F, the abundance fitness falls from 0.008 ± 0.063 to -0.42 ± 0.086.

First: S35W
Second: S35T
The abundance fitness of the first is lower: -0.335 ± 0.044 for the first, -0.013 ± 0.052 for the second.

Compared with E33F, E33I is lower in abundance fitness: -0.375 ± 0.071 for the first, -0.767 ± 0.29 for the second.

Compared with E33P, E33T is higher in abundance fitness: -0.26 ± 0.051 for the first, -0.084 ± 0.056 for the second.

Going from E33R to E33V, the abundance fitness falls from -0.031 ± 0.036 to -0.277 ± 0.036.

Going from T37K to T37V, the abundance fitness falls from 0.039 ± 0.056 to -0.1 ± 0.041.

T37D and T37E are within error of each other in abundance fitness: -0.22 ± 0.32 for the first, 0.017 ± 0.057 for the second.

Compared with T37C, L44G is lower in abundance fitness: -0.044 ± 0.052 for the first, -0.711 ± 0.067 for the second.

Compared with L44H, L44V is higher in abundance fitness: -0.825 ± 0.2 for the first, -0.193 ± 0.046 for the second.

H72T and H72I are within error of each other in abundance fitness: -0.38 ± 0.046 for the first, -0.338 ± 0.16 for the second.

Going from H72K to H72V, the abundance fitness falls from -0.282 ± 0.12 to -0.554 ± 0.051.

E57I and E57L are within error of each other in abundance fitness: -0.153 ± 0.14 for the first, -0.076 ± 0.044 for the second.

E57P and V28E are within error of each other in abundance fitness: -0.098 ± 0.043 for the first, -0.039 ± 0.065 for the second.

V28F and V28S are within error of each other in abundance fitness: -0.129 ± 0.064 for the first, -0.035 ± 0.032 for the second.

Going from V28G to V28P, the abundance fitness falls from -0.023 ± 0.034 to -0.921 ± 0.086.

V28K and V28Q are within error of each other in abundance fitness: 0.085 ± 0.069 for the first, 0.027 ± 0.046 for the second.

V28C and V28A are within error of each other in abundance fitness: 0.039 ± 0.042 for the first, -0.004 ± 0.047 for the second.

R8I and R8Q are within error of each other in abundance fitness: -0.222 ± 0.1 for the first, -0.158 ± 0.061 for the second.

Compared with R8F, R8E is higher in abundance fitness: -0.368 ± 0.1 for the first, -0.054 ± 0.052 for the second.

L24F and L24G are within error of each other in abundance fitness: -0.119 ± 0.072 for the first, -0.109 ± 0.03 for the second.

Compared with L24P, L24H is higher in abundance fitness: -1 ± 0.13 for the first, 0.029 ± 0.069 for the second.

L54M and L54Y are within error of each other in abundance fitness: -0.009 ± 0.061 for the first, -0.273 ± 0.34 for the second.

L54R and L54G are within error of each other in abundance fitness: -0.682 ± 0.046 for the first, -0.791 ± 0.072 for the second.

Compared with L54S, L9M is higher in abundance fitness: -0.693 ± 0.072 for the first, 0.011 ± 0.038 for the second.

L9N and L9V are within error of each other in abundance fitness: -0.08 ± 0.079 for the first, -0.013 ± 0.035 for the second.

I68H and I68V are within error of each other in abundance fitness: -0.095 ± 0.1 for the first, -0.021 ± 0.038 for the second.

I68G and I68E are within error of each other in abundance fitness: -0.087 ± 0.039 for the first, -0.044 ± 0.042 for the second.

I68C and I68P are within error of each other in abundance fitness: -0.055 ± 0.06 for the first, 0.023 ± 0.035 for the second.

L51T and L51K are within error of each other in abundance fitness: -0.825 ± 0.1 for the first, -1.13 ± 0.32 for the second.

Compared with L51Q, L75Y is higher in abundance fitness: -0.951 ± 0.27 for the first, 0.01 ± 0.16 for the second.

L75T and L75E are the same in abundance fitness: 0.024 ± 0.074 for the first, 0.024 ± 0.058 for the second.

L75I and Q17N are within error of each other in abundance fitness: 0.107 ± 0.12 for the first, -0.062 ± 0.1 for the second.

Q17A and Q17G are within error of each other in abundance fitness: -0.056 ± 0.043 for the first, -0.099 ± 0.04 for the second.

I16A and I16Y are within error of each other in abundance fitness: -0.021 ± 0.041 for the first, 0.037 ± 0.09 for the second.

I16D and I16Q are within error of each other in abundance fitness: -0.116 ± 0.086 for the first, 0.036 ± 0.074 for the second.

I16E and I16C are within error of each other in abundance fitness: 0.101 ± 0.079 for the first, 0.036 ± 0.054 for the second.

I16N and I16T are within error of each other in abundance fitness: -0.082 ± 0.07 for the first, -0.065 ± 0.069 for the second.

G10F and G10T are within error of each other in abundance fitness: -0.272 ± 0.079 for the first, -0.411 ± 0.069 for the second.

Going from G10I to G10Q, the abundance fitness rises from -0.562 ± 0.23 to 0.01 ± 0.057.

G10E and T42I are within error of each other in abundance fitness: -0.096 ± 0.038 for the first, -0.181 ± 0.063 for the second.

Compared with T42V, T42A is higher in abundance fitness: -0.122 ± 0.041 for the first, -0.004 ± 0.04 for the second.

E7N and E7Y are within error of each other in abundance fitness: -0.177 ± 0.14 for the first, -0.282 ± 0.085 for the second.

E7M and D40N are within error of each other in abundance fitness: -0.098 ± 0.057 for the first, -0.043 ± 0.075 for the second.

First: D40M
Second: D40C
The abundance fitness of the first is lower: -0.543 ± 0.058 for the first, -0.281 ± 0.07 for the second.

V23G and V23D are within error of each other in abundance fitness: -0.982 ± 0.08 for the first, -0.873 ± 0.062 for the second.

First: V23H
Second: V23A
The abundance fitness of the first is lower: -0.966 ± 0.2 for the first, -0.575 ± 0.06 for the second.

E5S and E5K are within error of each other in abundance fitness: -0.742 ± 0.057 for the first, -0.806 ± 0.22 for the second.

Going from E5Q to E5C, the abundance fitness rises from -0.485 ± 0.074 to -0.288 ± 0.07.

Compared with E5V, P64M is lower in abundance fitness: -0.093 ± 0.042 for the first, -0.952 ± 0.33 for the second.

First: P64Y
Second: P64A
The abundance fitness of the first is lower: -0.744 ± 0.13 for the first, -0.295 ± 0.054 for the second.

P64E and P64K are within error of each other in abundance fitness: -0.23 ± 0.064 for the first, -0.159 ± 0.057 for the second.

Compared with P64D, P64G is higher in abundance fitness: -0.738 ± 0.27 for the first, -0.158 ± 0.034 for the second.

D14L and D14G are within error of each other in abundance fitness: -0.766 ± 0.061 for the first, -0.805 ± 0.049 for the second.

D14P gave an abundance fitness of -0.596 ± 0.066.
